Laboratory results: the supplement of paper PMC9170038

Tested on: MS2 coat protein
Assay: apparent KD of MS2 coat protein; designed switch direction (-1 OFF switch, 1 ON switch): -1; higher = weaker reporter binding
In short: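 The apparent KD reported per design is the median over clusters of curve fits to normalised cluster fluorescence. The RNA switches were transcribed on Illumina chips by stalled E. coli RNA polymerase. SNAP-549-labelled MS2 coat protein was titrated from 0.7 or 1.5 nM, doubling up to 3 µM, in Tris-HCl pH 7.5 buffer containing KCl, MgCl2, BSA, DTT, tRNA and Tween-20, with no input, 200 uM small-molecule ligand, or an oligonucleotide input.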

[1] = input ligand: microRNA oligo, concentration not stated
[2] = Eterna round: R95, input ligand: microRNA oligo, concentration not stated
[3] = Eterna round: R95, input ligand: FMN 200 uM
[4] = Eterna round: R95, input ligand: none

Row | Sequence | apparent KD of MS2 coat protein [2] [nM] | further results
1 | GGUCAUCAAGUCAGGAUAUCGUCUAAUCAAUCAGGCGAGAAGGGACAUGAGGAUCACCCAUGUCGACUCAUCAG [Ex4 #6] (Eterna round: R97, puzzle: Brourd's mod of Exclusion 4) |  | apparent KD of MS2 coat protein (input ligand: FMN 200 uM): 130 nM; apparent KD of MS2 coat protein (input ligand: none): 33.5 nM
2 | GGUCCACAUGAGGAUCACCCAUGUUAGGAUAUCUCCCGCCUCCUCACUGGAGACGGACAGAGAAGGAACAUCAA [Vetibele] (Eterna round: R96, puzzle: Exclusion 1) |  | apparent KD of MS2 coat protein (input ligand: FMN 200 uM): 104 nM; apparent KD of MS2 coat protein [1]: 20.5 nM; apparent KD of MS2 coat protein (input ligand: none): 24.3 nM
3 | GGUCCACAUGAGGAUCACCCAUGUUAGGAUAUCUCCCGCCUCCUCACUGGAGACGGACAGAGAAGGAACAUCAA [Vetibele] (puzzle: Exclusion 1) | 23.7 | 
4 | GGUCGACAUGAGGAUCACCCAUGUCAGGAUAUCGUCACUGGAGCUUCGGCUCCAGUGACGAGAAGGGAUAUAAU [E1/15-A1] (Eterna round: R97, puzzle: Exclusion 1) |  | apparent KD of MS2 coat protein (input ligand: FMN 200 uM): 24.6 nM; apparent KD of MS2 coat protein (input ligand: none): 36.9 nM
5 | GGUCUACAUGAGGAUCACCCAUGUCAGGAUAUCGUGUGUUUUUUUUCGGCCGCGCGUGCGAGAAGGGACGUCUU (puzzle: Exclusion 1) | 16.6 | 
6 | GGUGAGAGCAAGGAUAUGCAGAAGAGAGAAAGAGCAGAAGGUGCUACAUGAGGAUCACCCAUGUUGGAUGUGUU [JR_E6_Sub014] (puzzle: Exclusion 6) | 35.6 | apparent KD of MS2 coat protein [3]: 46.3 nM; apparent KD of MS2 coat protein [4]: 39.3 nM
7 | GGUGCGUAUGUGAGGAUAUGCUGGUCCUUGGAUCAGCAGAAGGCACAUGAGGAUCACCCAUGUGGUGUCGUACA [salish99_Bmod_Ex4_014] (puzzle: Brourd's mod of Exclusion 4) | 255 | 
8 | GGUGCGUAUGUGAGGAUAUGCUGGUCCUUGGAUCGGCAGAAGGCACAUGAGGAUCACCCAUGUGGUGUCGUACC [salish99_Bmod_Ex4_023] (puzzle: Brourd's mod of Exclusion 4) | 165 | 
9 | GGUGCGUUUGUGAGGAUAUGCUGGUCCUUGGAUCAGCAGAAGGCACAUGAGGAUCACCCAUGUGGUGUCCGUCC [salish99_Bmod_Ex4_039] (puzzle: Brourd's mod of Exclusion 4) | 180 | 
10 | GGUGCGUUUGUGAGGAUAUGCUGGUCCUUGGCUCAGCAGAAGGCACAUGAGGAUCACCCAUGUGGUGUCGUACC [salish99_Bmod_Ex4_033] (puzzle: Brourd's mod of Exclusion 4) | 239 | 
11 | GGUGCGUUUGUGAGGAUAUGCUGGUCCUUGGUUCGGCAGAAGGCACAUGAGGAUCACCCAUGUGGUGUCGUACC [salish99_Bmod_Ex4_043] (puzzle: Brourd's mod of Exclusion 4) | 15.7 | 
12 | GGUGGACAUGAGGAUCACCCAUGUGAGGAUAUCGGCCGGCUAGUGGCGGCUGGCUUCUCGAGAAGGCGCAUAGU [Exclusion 1 V77] (puzzle: Exclusion 1) | 37.3 | 
13 | GGUGGACAUGAGGAUCACCCAUGUGAGGAUAUCGGCCGGUUCGCGGUGGCUGGCGUCUCGAGAAGGCGCAUAGU [Exclusion 1 V71] (puzzle: Exclusion 1) | 28.7 | 
14 | GGUGGACAUGAGGAUCACCCAUGUGAGGAUAUCGGCUAUCUACUCGCUGACGGCUGCUCGAGAAGGCACAUUGU [Exclusion 1 V91] (puzzle: Exclusion 1) | 54.6 | 
15 | GGUGGACAUGAGGAUCACCCAUGUGAGGAUAUCGGCUAUCUACUCGCUGACGGUUGCUCGAGAAGGCACAUUGU [Exclusion 1 V92] (puzzle: Exclusion 1) | 90.9 | 
16 | GGUGGACAUGAGGAUCACCCAUGUGAGGAUAUCGGCUGGUACGUGUUGGCUGGCAUCUCGAGAAGGCACAUAGG [Exclusion 1 V60] (puzzle: Exclusion 1) | 102 | 
17 | GGUGGACAUGAGGAUCACCCAUGUGAGGAUAUCGGCUGGUGCGUGGUGGCUGGCAUCUCGAGAAGGCACAUAGU [Exclusion 1 V67] (puzzle: Exclusion 1) | 70.5 | 
18 | GGUGUGGCAGGAUAUACAUCGAAGGGUGCAAAGGGCUCGGCACAUGAGGAUCACCCAUGUAGAAGGGCCUACCA [Beated] (Eterna round: R96, puzzle: Exclusion 2) |  | apparent KD of MS2 coat protein (input ligand: FMN 200 uM): 25.3 nM; apparent KD of MS2 coat protein [1]: 13.6 nM; apparent KD of MS2 coat protein (input ligand: none): 15.6 nM
19 | GGUUAUUGCAAGGAUAUGCUUUUUUGUGAAAUUGCAGAAGGUGCAACAUGAGGAUCACCCAUGUUGGAUGGGUU [JR_E6_Sub017] (puzzle: Exclusion 6) | 93.7 | 
20 | GGUUAUUGCAAGGAUAUGCUUUUUUUUGAAAUUGCAGAAGGUGCAACAUGAGGAUCACCCAUGUUGGAUGGGUU [JR_E6_Sub018] (Eterna round: R96, puzzle: Exclusion 6) |  | apparent KD of MS2 coat protein (input ligand: FMN 200 uM): 252 nM; apparent KD of MS2 coat protein [1]: 161 nM; apparent KD of MS2 coat protein (input ligand: none): 194 nM
21 | GGUUAUUGCAAGGAUAUGCUUUUUUUUGAAAUUGCAGAAGGUGCAACAUGAGGAUCACCCAUGUUGGAUGGGUU [JR_E6_Sub018] (puzzle: Exclusion 6) | 106 | 
22 | GGUUGCGCAGGAUAUACAUGAGGAUCACCCAUGUGAGAGAAAUAAGUGAGGAAGAAAAGUAGAAGGGCGUGACA [Mat - Exclusion 3 - Mod of Salish D75] (puzzle: Exclusion 3) | 45.3 | apparent KD of MS2 coat protein [3]: 175 nM; apparent KD of MS2 coat protein [4]: 58.9 nM
